In PMC4794788, “Cell‐free synthesis of isotopically labelled peptide ligands for the functional characterization of G protein‐coupled receptors” (FEBS Open Bio, 2015) one finds Kd data, which are given here for 1 molecule.

For the assay, the target named is T1, human complement 5a receptor (C5aR) (Homo sapiens, UniProt P21730).
T1 construct: 10x His (N); FLAG (N); StrepII (C); made in house; host or cells: Sf9 insect cells (recombinant baculovirus, pOET5 / flashBAC); membrane preparation
T1 sequence (P21730 1-350): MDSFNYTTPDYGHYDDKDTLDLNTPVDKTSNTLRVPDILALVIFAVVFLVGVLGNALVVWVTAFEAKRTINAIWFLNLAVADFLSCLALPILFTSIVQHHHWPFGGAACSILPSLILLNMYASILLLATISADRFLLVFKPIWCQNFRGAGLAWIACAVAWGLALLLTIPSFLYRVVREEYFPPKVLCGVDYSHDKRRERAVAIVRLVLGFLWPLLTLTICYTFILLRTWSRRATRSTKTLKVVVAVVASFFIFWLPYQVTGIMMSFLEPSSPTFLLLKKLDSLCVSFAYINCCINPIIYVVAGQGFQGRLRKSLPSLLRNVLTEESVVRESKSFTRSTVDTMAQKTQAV
As to the kind of experiment: Saturation radioligand binding of [^3H]‐C5a^CF to C5aR in Sf9 membranes. As to conditions: radioligand 31 pM‐8 nM; human C5aR coproduced with Gαi2, Sf9 membranes (10–50 μg total protein); 120 min, room temperature; 50 mM Hepes‐NaOH pH 7.4, 5 mM MgCl2, 1 mM CaCl2, 0.5% BSA, 75 mM NaCl; nonspecific: 50 μM H2N‐ChaW; filtration, scintillation counting; means ± SEM from three or two independent experiments in triplicate; read-out: KD (dissociation constant). An excerpt:
The complement 5a receptor was coproduced with Gαi2 in Sf9 insect cells. The cDNA encoding the human complement 5a receptor flanked by an N‐terminal 10x His and FLAG tag and a C‐terminal StrepII tag was cloned into the pOET5 transfer vector (Oxford Expression Technologies, Oxford, UK). pOET5 contains two expression cassettes, the receptor is expressed under the control of a polyhedron promoter; Gαi2 expression is regulated by a p10 promoter. Recombinant baculoviruses were generated with the flashBAC protein expression system (Oxford Expression Technologies) according to manufacturer's instructions. […] Total membrane protein content was determined by the bicinchoninic acid (BCA) method using bovine serum albumin as the standard.
For the determination of binding parameters, membranes containing the respective receptors (10–50 μg total membrane protein) were incubated with cell‐free synthesized tritium‐labelled ligands in varying concentrations. Binding was terminated by rapid filtration over glass fibre filters pretreated with 0.3% polyethyleneimine using a Brandel harvester (Brandel, Alpha Biotech Ltd, Killearn, UK) and analysed by liquid scintillation counting. […]
Data are represented as means ± SEM from three or two independent experiments performed in triplicate and analysed in […] […]

B1: [^3H]‐C5a^CF: cell‐free‐synthesized tritium‐labelled complement 5a with N‐terminal hexa‐histidine tag; contains three proline residues (protein, UniProt P01031 678-751, looked up)
C5a anaphylatoxin: TLQKKIEEIAAKYKHSVVKKCCYDGACVNNDETCEQRAARISLGPRCIKAFTECCVVASQLRANISHKDMQLGR
modifications: C5a anaphylatoxin tritium label
On to B1, for which the Kd (commonly the constant that tells how readily two partners part at equilibrium) turned out to be 1.18 ± 0.27 nM.
